Experiments:
[1] = target: T1, …; assay: SPOT length analysis, dot 9, HRP-S-protein detection
T1 sequence (peptide): FRSSDFAKNFVQT

[2] = target: T2, sortilin peptide … on SPOT membrane; assay: SPOT length analysis, dot 1, anti-histidine detection
T2 sequence (peptide, C-terminus anchored to the cellulose membrane through a beta-alanine linker): RIFRSSDFAKNFVQTD

[3] = target: T3, …; assay: SPOT length analysis, dot 15, HRP-S-protein detection
T3 sequence (peptide): SSDFAKNFVQTD

[4] = target: T4, …; assay: SPOT length analysis, dot 19, HRP-S-protein detection
T4 sequence (peptide): RSSDFAKNFVQ

[5] = target: T5, …; assay: SPOT length analysis, dot 2, anti-histidine detection
T5 sequence (peptide): RIFRSSDFAKNFVQT

[6] = target: T6, …; assay: SPOT length analysis, dot 21, HRP-S-protein detection
T6 sequence (peptide): SDFAKNFVQTD

[7] = target: T7, …; assay: SPOT length analysis, dot 22, HRP-S-protein detection
T7 sequence (peptide): RIFRSSDFAK

[8] = target: T8, …; assay: SPOT length analysis, dot 25, HRP-S-protein detection
T8 sequence (peptide): RSSDFAKNFV

[9] = target: T9, …; assay: SPOT length analysis, dot 26, HRP-S-protein detection
T9 sequence (peptide): SSDFAKNFVQ

[10] = target: T10, …; assay: SPOT length analysis, dot 27, HRP-S-protein detection
T10 sequence (peptide): SDFAKNFVQT

[11] = target: T11, …; assay: SPOT length analysis, dot 31, HRP-S-protein detection
T11 sequence (peptide): FRSSDFAKN

[12] = target: T12, IFRSSDFA; assay: SPOT length analysis, dot 38, HRP-S-protein detection
T12 sequence (peptide): IFRSSDFA

[13] = target: T13, DFAKNFVQ; assay: SPOT length analysis, dot 43, HRP-S-protein detection
T13 sequence (peptide): DFAKNFVQ

[14] = target: T14, AKNFVQTD; assay: SPOT length analysis, dot 45, HRP-S-protein detection
T14 sequence (peptide): AKNFVQTD

[15] = target: T15, IFRSSDF; assay: SPOT length analysis, dot 47, HRP-S-protein detection
T15 sequence (peptide): IFRSSDF

[16] = target: T16, FRSSDFA; assay: SPOT length analysis, dot 48, HRP-S-protein detection
T16 sequence (peptide): FRSSDFA

[17] = target: T17, …; assay: SPOT length analysis, dot 5, anti-histidine detection
T17 sequence (peptide): IFRSSDFAKNFVQT

[18] = target: T18, RSSDFA; assay: SPOT length analysis, dot 59, HRP-S-protein detection
T18 sequence (peptide): RSSDFA

[19] = target: T19, SDFAKN; assay: SPOT length analysis, dot 61, HRP-S-protein detection
T19 sequence (peptide): SDFAKN

[20] = target: T20, AKNFVQ; assay: SPOT length analysis, dot 64, HRP-S-protein detection
T20 sequence (peptide): AKNFVQ

[21] = target: T21, RSSDF; assay: SPOT length analysis, dot 70, HRP-S-protein detection
T21 sequence (peptide): RSSDF

[22] = target: T22, AKNFV; assay: SPOT length analysis, dot 75, HRP-S-protein detection
T22 sequence (peptide): AKNFV

[23] = target: T23, NFVQT; assay: SPOT length analysis, dot 77, HRP-S-protein detection
T23 sequence (peptide): NFVQT

[24] = target: T24, …; assay: SPOT length analysis, dot 8, anti-histidine detection
T24 sequence (peptide): IFRSSDFAKNFVQ

[25] = target: T25, IFRS; assay: SPOT length analysis, dot 80, HRP-S-protein detection
T25 sequence (peptide): IFRS

[26] = target: T26, RSSD; assay: SPOT length analysis, dot 82, HRP-S-protein detection
T26 sequence (peptide): RSSD

[27] = target: T27, SSDF; assay: SPOT length analysis, dot 83, HRP-S-protein detection
T27 sequence (peptide): SSDF

[28] = target: T28, FAKN; assay: SPOT length analysis, dot 86, HRP-S-protein detection
T28 sequence (peptide): FAKN

[29] = target: T29, AKNF; assay: SPOT length analysis, dot 87, HRP-S-protein detection
T29 sequence (peptide): AKNF

[30] = target: T30, KNFV; assay: SPOT length analysis, dot 88, HRP-S-protein detection
T30 sequence (peptide): KNFV

[31] = target: T31, FVQT; assay: SPOT length analysis, dot 90, HRP-S-protein detection
T31 sequence (peptide): FVQT

[32] = target: T32, VQTD; assay: SPOT length analysis, dot 91, HRP-S-protein detection
T32 sequence (peptide): VQTD

[33] = target: T7, …; assay: SPOT length analysis, dot 22, anti-histidine detection
[34] = target: T9, …; assay: SPOT length analysis, dot 26, anti-histidine detection
[35] = target: T33, SDFAKNFV; assay: SPOT length analysis, dot 42, anti-histidine detection
T33 sequence (peptide): SDFAKNFV

[36] = target: T34, FAKNFVQT; assay: SPOT length analysis, dot 44, anti-histidine detection
T34 sequence (peptide): FAKNFVQT

[37] = target: T15, IFRSSDF; assay: SPOT length analysis, dot 47, anti-histidine detection
[38] = target: T35, AKNFVQT; assay: SPOT length analysis, dot 54, anti-histidine detection
T35 sequence (peptide): AKNFVQT

[39] = target: T36, RIFRSS; assay: SPOT length analysis, dot 56, anti-histidine detection
T36 sequence (peptide): RIFRSS

[40] = target: T18, RSSDFA; assay: SPOT length analysis, dot 59, anti-histidine detection
[41] = target: T37, SSDFAK; assay: SPOT length analysis, dot 60, anti-histidine detection
T37 sequence (peptide): SSDFAK

[42] = target: T19, SDFAKN; assay: SPOT length analysis, dot 61, anti-histidine detection
[43] = target: T38, KNFVQT; assay: SPOT length analysis, dot 65, anti-histidine detection
T38 sequence (peptide): KNFVQT

[44] = target: T39, IFRSS; assay: SPOT length analysis, dot 68, anti-histidine detection
T39 sequence (peptide): IFRSS

[45] = target: T21, RSSDF; assay: SPOT length analysis, dot 70, anti-histidine detection
[46] = target: T40, SDFAK; assay: SPOT length analysis, dot 72, anti-histidine detection
T40 sequence (peptide): SDFAK

[47] = target: T22, AKNFV; assay: SPOT length analysis, dot 75, anti-histidine detection
[48] = target: T41, FRSS; assay: SPOT length analysis, dot 81, anti-histidine detection
T41 sequence (peptide): FRSS

[49] = target: T31, FVQT; assay: SPOT length analysis, dot 90, anti-histidine detection

B1: recombinant his-S-tagged pro-domain of human BDNF (residues Ala1-Arg110), from pET-30 Xa/LIC, E. coli (protein, not shown: small tags and cut ends)
chain: APMKEANIRGQGGLAYPGVRTHGTLESVNGPKAGSGLTSLADTFEHVIEELLDEDQKVRPNEENNKDADLYTSRVMLSSQVPLEPPLLFLLEEYKNYLDAANMSMRVRR
BLU Sprotein [1]: 223000 BLU | BLU His [2]: 57000 BLU | BLU Sprotein [3]: 22400 BLU | BLU Sprotein [4]: 22400 BLU | BLU His [5]: 113000 BLU | BLU Sprotein [6]: 16900 BLU | BLU Sprotein [7]: 60500 BLU | BLU Sprotein [8]: 25400 BLU | BLU Sprotein [9]: 18500 BLU | BLU Sprotein [10]: 19100 BLU | BLU Sprotein [11]: 20300 BLU | BLU Sprotein [12]: 24400 BLU | BLU Sprotein [13]: 14700 BLU | BLU Sprotein [14]: 15300 BLU | BLU Sprotein [15]: 27800 BLU | BLU Sprotein [16]: 17200 BLU | BLU His [17]: 53400 BLU | BLU Sprotein [18]: 15900 BLU | BLU Sprotein [19]: 15600 BLU | BLU Sprotein [20]: 14100 BLU | BLU Sprotein [21]: 15500 BLU | BLU Sprotein [22]: 15900 BLU | BLU Sprotein [23]: 15600 BLU | BLU His [24]: 41600 BLU | BLU Sprotein [25]: 111000 BLU | BLU Sprotein [26]: 14900 BLU | BLU Sprotein [27]: 14000 BLU | BLU Sprotein [28]: 13700 BLU | BLU Sprotein [29]: 13700 BLU | BLU Sprotein [30]: 13800 BLU | BLU Sprotein [31]: 13600 BLU | BLU Sprotein [32]: 13800 BLU | BLU His [33]: 45500 BLU | BLU His [34]: 17800 BLU | BLU His [35]: 16300 BLU | BLU His [36]: 80400 BLU | BLU His [37]: 24400 BLU | BLU His [38]: 17300 BLU | BLU His [39]: 122000 BLU | BLU His [40]: 18300 BLU | BLU His [41]: 16100 BLU | BLU His [42]: 15100 BLU | BLU His [43]: 15400 BLU | BLU His [44]: 25300 BLU | BLU His [45]: 16100 BLU | BLU His [46]: 15900 BLU | BLU His [47]: 17500 BLU | BLU His [48]: 20100 BLU | BLU His [49]: 15600 BLU

Source: patent US20150023971A1
